Columns and labels:
[1] = biological target: Porcine gastric mucin (PGM) (porcine); assay: ITC; ITC-200 at 37 °C, pH 7.4; PGM solution (40 μM) in the 200 μL cell, KTN or KOS solution (1% w/v) in the syringe
[2] = biological target: Porcine gastric mucin (PGM) (porcine); assay: as above; remark: listed apart in the source
[3] = biological target: Porcine gastric mucin (PGM) (porcine); assay: ITC; ITC-200 at 37 °C, pH 4.5; PGM solution (40 μM) in the 200 μL cell, KTN or KOS solution (1% w/v) in the syringe
[4] = biological target: Porcine gastric mucin (PGM) (porcine); assay: ITC; ITC-200 at 37 °C, pH 7.4; PGM solution (40 μM) in the 200 μL cell, KTN or KOS solution (1% w/v) in the syringe; remark: listed apart in the source

Row | Ka [1] [M⁻¹] | dH [1] [kcal/mol] | stoichiometry N [1] | dH [2] [kcal/mol] | Ka [3] [M⁻¹] | dH [3] [kcal/mol] | stoichiometry N [3] | Ka [4] [M⁻¹] | Substance
1 | 4140 | -61.1 | 1.27 | 61.1 | 15500 | -4.25 | 1.15 | 41400 | keratose (oxidized keratin, KOS)
2 | 10700 | -3.47 | 1.5 |  | 398000 | -2.41 | 1.23 |  | kerateine (reduced keratin, KTN)

Source: article PMC5858146
